Source: patent US7105306 (University of Pennsylvania, dated 2006)

Target: prolactin (PRL), human, untagged (serum PRL; PRL used in cell cultures) (human, UniProt P01229)
Assay: cell-based or functional assay

B1: His-tagged cyclophilin B (CypB), recombinant, purified from Drosophila S2 cells (enzyme, not shown: small tags and cut ends)
chain: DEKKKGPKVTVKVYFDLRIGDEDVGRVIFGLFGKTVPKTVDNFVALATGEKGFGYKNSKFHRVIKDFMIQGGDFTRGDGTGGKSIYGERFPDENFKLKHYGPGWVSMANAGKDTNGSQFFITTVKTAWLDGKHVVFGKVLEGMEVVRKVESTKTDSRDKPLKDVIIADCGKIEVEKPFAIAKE
  PRL-driven growth of Nb2 cells (3H-thymidine): ≤ 8 fold
